Source: publication PMC11969024 (2025)

B1: peptide HD2 (from tick evasin EVA4) / CCL1 (biotinylated, synthetic) (parent complex)
chain 1: EEDDYTAYAPLTCYFT
chain 2: KSMQVPFSRCCFSFAEQEIPLRAILCYRNTSSICSNEGLIFKLKRGKEACALDTVGWVQRHRKMLRHCPSKRK
B2: peptide HD2 (from tick evasin EVA4) / CXCL14 (biotinylated, synthetic) (parent complex)
chain 1: EEDDYTAYAPLTCYFT
chain 2: SKCKCSRKGPKIRYSDVKKLEMKPKYPHCEEKMVIITTKSVSRYRGQEHCLHPKLQSTKRFIKWYNAWNEKRRVYEE

Variants of: B1

| Variant | enrichment |
| --- | --- |
| chain 1 EEDDYTAYAPLTGYFT [chain 1 C13G] | -9.66 log2 (difference from the parental peptide) |
| chain 1 EEDDYTAYAPLTNYFT [chain 1 C13N] | -5.11 log2 (difference from the parental peptide) |
| chain 1 EEDDYTAYAPLTSYFT [chain 1 C13S] | -4.71 log2 (difference from the parental peptide) |
| chain 1 EEDDYTAYAPLYCYFT [chain 1 T12Y] | 1.88 log2 (difference from the parental peptide) |
| chain 1 EEDDYTAYAPLCCYFT [chain 1 T12C] | -5.86 log2 (difference from the parental peptide) |
| chain 1 EEDDYTAYAPLSCYFT [chain 1 T12S] | -1.12 log2 (difference from the parental peptide) |
| chain 1 EEDDYTAYAPLRCYFT [chain 1 T12R] | -1.56 log2 (difference from the parental peptide) |
| chain 1 EEDDYTAYAPLVCYFT [chain 1 T12V] | -1.56 log2 (difference from the parental peptide) |
| chain 1 EEDDYTAYAPLPCYFT [chain 1 T12P] | 0.359 log2 (difference from the parental peptide) |
| chain 1 EEDDLTAYAPLTCYFT [chain 1 Y5L] | -5.06 log2 (difference from the parental peptide) |
| chain 1 EEDDYTAYEPLTCYFT [chain 1 A9E] | 2.72 log2 (difference from the parental peptide) |
| chain 1 EEDDYTAYYPLTCYFT [chain 1 A9Y] | -5.89 log2 (difference from the parental peptide) |
| chain 1 EEDDYTAYAPLTCYFQ [chain 1 T16Q] | 0.281 log2 (difference from the parental peptide) |
| chain 1 EEDDYTAYAPLTCYFF [chain 1 T16F] | -0.729 log2 (difference from the parental peptide) |
| chain 1 EEDDYTAYAPLTCYFL [chain 1 T16L] | -0.0976 log2 (difference from the parental peptide) |
| chain 1 EEDDYTAYAPLTCYFN [chain 1 T16N] | -0.351 log2 (difference from the parental peptide) |
| chain 1 EEDDYTAYAPLTCYFC [chain 1 T16C] | 0.749 log2 (difference from the parental peptide) |
| chain 1 TEDDYTAYAPLTCYFT [chain 1 E1T] | -1.42 log2 (difference from the parental peptide) |
| chain 1 REDDYTAYAPLTCYFT [chain 1 E1R] | -4.21 log2 (difference from the parental peptide) |
| chain 1 GEDDYTAYAPLTCYFT [chain 1 E1G] | -1.01 log2 (difference from the parental peptide) |

| Variant | enrichment |
| --- | --- |
| chain 1 IEDDYTAYAPLTCYFT [chain 1 E1I] | -1.54 log2 (difference from the parental peptide) |
| chain 1 EEDPYTAYAPLTCYFT [chain 1 D4P] | -4.71 log2 (difference from the parental peptide) |
| chain 1 EEDIYTAYAPLTCYFT [chain 1 D4I] | -6.7 log2 (difference from the parental peptide) |
| chain 1 EEDYYTAYAPLTCYFT [chain 1 D4Y] | -4.35 log2 (difference from the parental peptide) |
| chain 1 EEDFYTAYAPLTCYFT [chain 1 D4F] | -6.41 log2 (difference from the parental peptide) |
| chain 1 EEDLYTAYAPLTCYFT [chain 1 D4L] | -6.1 log2 (difference from the parental peptide) |
| chain 1 EEDHYTAYAPLTCYFT [chain 1 D4H] | -7 log2 (difference from the parental peptide) |
| chain 1 EEDDYTALAPLTCYFT [chain 1 Y8L] | -7.27 log2 (difference from the parental peptide) |
| chain 1 EEDDYTAFAPLTCYFT [chain 1 Y8F] | -0.41 log2 (difference from the parental peptide) |
| chain 1 EEDDYTAVAPLTCYFT [chain 1 Y8V] | -4.63 log2 (difference from the parental peptide) |
| chain 1 EEDDYTAMAPLTCYFT [chain 1 Y8M] | -7.72 log2 (difference from the parental peptide) |
| chain 1 EADDYTAYAPLTCYFT [chain 1 E2A] | -1.98 log2 (difference from the parental peptide) |
| chain 1 EHDDYTAYAPLTCYFT [chain 1 E2H] | -3.7 log2 (difference from the parental peptide) |
| chain 1 EEDDYTMYAPLTCYFT [chain 1 A7M] | 1.33 log2 (difference from the parental peptide) |
| chain 1 EEDDYTHYAPLTCYFT [chain 1 A7H] | -2.76 log2 (difference from the parental peptide) |
| chain 1 EEDDYTLYAPLTCYFT [chain 1 A7L] | -2.16 log2 (difference from the parental peptide) |
| chain 1 EEDDYTNYAPLTCYFT [chain 1 A7N] | -1.23 log2 (difference from the parental peptide) |
| chain 1 EEDDYTFYAPLTCYFT [chain 1 A7F] | -3.93 log2 (difference from the parental peptide) |
| chain 1 EEDDYTAYAPWTCYFT [chain 1 L11W] | -0.114 log2 (difference from the parental peptide) |
| chain 1 EEDDYTAYAPRTCYFT [chain 1 L11R] | 0.643 log2 (difference from the parental peptide) |

| Variant | enrichment |
| --- | --- |
| chain 1 EEDDYTAYAPSTCYFT [chain 1 L11S] | -4.97 log2 (difference from the parental peptide) |
| chain 1 EEDDYTAYAPQTCYFT [chain 1 L11Q] | 1.31 log2 (difference from the parental peptide) |
| chain 1 EEDDYTAYAPGTCYFT [chain 1 L11G] | -8.48 log2 (difference from the parental peptide) |
| chain 1 EEDDYTAYAPATCYFT [chain 1 L11A] | -2.67 log2 (difference from the parental peptide) |
| chain 1 EEDDYTAYAPLTCYNT [chain 1 F15N] | -1.79 log2 (difference from the parental peptide) |
| chain 1 EEDDYTAYAPLTCYST [chain 1 F15S] | -0.0654 log2 (difference from the parental peptide) |
| chain 1 EEDDYTAYAPLTCYAT [chain 1 F15A] | 2.04 log2 (difference from the parental peptide) |
| chain 1 EEDDYTAYAPLTCTFT [chain 1 Y14T] | -6.17 log2 (difference from the parental peptide) |
| chain 1 EEDDYTAYAPLTCRFT [chain 1 Y14R] | -7.32 log2 (difference from the parental peptide) |
| chain 1 EEDDYTAYAPLTCFFT [chain 1 Y14F] | 0.0997 log2 (difference from the parental peptide) |
| chain 1 EEDDYTAYAPLTCIFT [chain 1 Y14I] | -4.18 log2 (difference from the parental peptide) |
| chain 1 EEEDYTAYAPLTCYFT [chain 1 D3E] | 1.49 log2 (difference from the parental peptide) |
| chain 1 EETDYTAYAPLTCYFT [chain 1 D3T] | -2.84 log2 (difference from the parental peptide) |
| chain 1 EEDDYIAYAPLTCYFT [chain 1 T6I] | -5.87 log2 (difference from the parental peptide) |
| chain 1 EEDDYCAYAPLTCYFT [chain 1 T6C] | -10.4 log2 (difference from the parental peptide) |
| chain 1 EEDDYNAYAPLTCYFT [chain 1 T6N] | 0.938 log2 (difference from the parental peptide) |
| chain 1 EEDDYEAYAPLTCYFT [chain 1 T6E] | 3.09 log2 (difference from the parental peptide) |
| chain 1 EEDDYFAYAPLTCYFT [chain 1 T6F] | -4.18 log2 (difference from the parental peptide) |
| chain 1 EEDDYVAYAPLTCYFT [chain 1 T6V] | -5.45 log2 (difference from the parental peptide) |
| chain 1 EEDDYQAYAPLTCYFT [chain 1 T6Q] | 1.62 log2 (difference from the parental peptide) |

Variants of: B2

| Variant | enrichment |
| --- | --- |
| chain 1 DEDDYTAYAPLTCYFT [chain 1 E1D] | 2.43 log2 (difference from the parental peptide) |
| chain 1 FEDDYTAYAPLTCYFT [chain 1 E1F] | 0.23 log2 (difference from the parental peptide) |
| chain 1 WEDDYTAYAPLTCYFT [chain 1 E1W] | -4.16 log2 (difference from the parental peptide) |
| chain 1 IEDDYTAYAPLTCYFT [chain 1 E1I] | 3.24 log2 (difference from the parental peptide) |
| chain 1 EEDDYTAYAPLTCYFE [chain 1 T16E] | -5.76 log2 (difference from the parental peptide) |
| chain 1 EEDDYTAYAPLTCYFM [chain 1 T16M] | 1.39 log2 (difference from the parental peptide) |
| chain 1 EEDDYTAYAPLTCYFP [chain 1 T16P] | -4.73 log2 (difference from the parental peptide) |
| chain 1 EEDDYTAYAPLTCYFK [chain 1 T16K] | 0.732 log2 (difference from the parental peptide) |
| chain 1 EEDDYTAYAPLTCYFV [chain 1 T16V] | -2.39 log2 (difference from the parental peptide) |
| chain 1 EEDDYTAYAPSTCYFT [chain 1 L11S] | -6.87 log2 (difference from the parental peptide) |
| chain 1 EEDDYTAYAPTTCYFT [chain 1 L11T] | -4.92 log2 (difference from the parental peptide) |
| chain 1 EEDDYTAYAPMTCYFT [chain 1 L11M] | 2.64 log2 (difference from the parental peptide) |
| chain 1 EEDDYTAYAPWTCYFT [chain 1 L11W] | 0.85 log2 (difference from the parental peptide) |
| chain 1 EEDDYTAYAPLQCYFT [chain 1 T12Q] | -4.89 log2 (difference from the parental peptide) |
| chain 1 EEDDYTAYAPLLCYFT [chain 1 T12L] | 1.89 log2 (difference from the parental peptide) |
| chain 1 EEDDYTAYAPLPCYFT [chain 1 T12P] | -5.93 log2 (difference from the parental peptide) |
| chain 1 EEDDYTAYAPLCCYFT [chain 1 T12C] | -5.89 log2 (difference from the parental peptide) |
| chain 1 EEDDYTAYAPLYCYFT [chain 1 T12Y] | 2.9 log2 (difference from the parental peptide) |
| chain 1 EEDDYTAYAPLKCYFT [chain 1 T12K] | -5.85 log2 (difference from the parental peptide) |
| chain 1 EEDDITAYAPLTCYFT [chain 1 Y5I] | 0.188 log2 (difference from the parental peptide) |
| chain 1 EEDDCTAYAPLTCYFT [chain 1 Y5C] | -4.43 log2 (difference from the parental peptide) |
| chain 1 EEDDHTAYAPLTCYFT [chain 1 Y5H] | -3.59 log2 (difference from the parental peptide) |
| chain 1 EEDDYTAYAPLTCYIT [chain 1 F15I] | -3.52 log2 (difference from the parental peptide) |
| chain 1 EEDDYTAYAGLTCYFT [chain 1 P10G] | -1.01 log2 (difference from the parental peptide) |
| chain 1 EEDDYTAYAWLTCYFT [chain 1 P10W] | 1.96 log2 (difference from the parental peptide) |
| chain 1 EEDDYTAYASLTCYFT [chain 1 P10S] | -0.979 log2 (difference from the parental peptide) |

| Variant | enrichment |
| --- | --- |
| chain 1 EEDDYTAYAPLTVYFT [chain 1 C13V] | 2.72 log2 (difference from the parental peptide) |
| chain 1 EEDDYTAYAPLTEYFT [chain 1 C13E] | -8.19 log2 (difference from the parental peptide) |
| chain 1 EEDDYTAYAPLTWYFT [chain 1 C13W] | -7.91 log2 (difference from the parental peptide) |
| chain 1 EEDDYTLYAPLTCYFT [chain 1 A7L] | 0.408 log2 (difference from the parental peptide) |
| chain 1 EEDDYTVYAPLTCYFT [chain 1 A7V] | -1.42 log2 (difference from the parental peptide) |
| chain 1 EEDDYTFYAPLTCYFT [chain 1 A7F] | 2.13 log2 (difference from the parental peptide) |
| chain 1 EEDDYTKYAPLTCYFT [chain 1 A7K] | 3.78 log2 (difference from the parental peptide) |
| chain 1 EEDDYTEYAPLTCYFT [chain 1 A7E] | 2.45 log2 (difference from the parental peptide) |
| chain 1 EEDDYTPYAPLTCYFT [chain 1 A7P] | -3.32 log2 (difference from the parental peptide) |
| chain 1 EEDDYLAYAPLTCYFT [chain 1 T6L] | 0.717 log2 (difference from the parental peptide) |
| chain 1 EEDDYAAYAPLTCYFT [chain 1 T6A] | 0.332 log2 (difference from the parental peptide) |
| chain 1 EEDDYVAYAPLTCYFT [chain 1 T6V] | -0.538 log2 (difference from the parental peptide) |
| chain 1 EEDDYCAYAPLTCYFT [chain 1 T6C] | -9.38 log2 (difference from the parental peptide) |
| chain 1 EEDDYWAYAPLTCYFT [chain 1 T6W] | 5.58 log2 (difference from the parental peptide) |
| chain 1 EEDDYHAYAPLTCYFT [chain 1 T6H] | -0.995 log2 (difference from the parental peptide) |
| chain 1 EEDDYTAYAPLTCLFT [chain 1 Y14L] | -8.75 log2 (difference from the parental peptide) |
| chain 1 EEDDYTAYAPLTCQFT [chain 1 Y14Q] | -6.31 log2 (difference from the parental peptide) |
| chain 1 EEDDYTAYMPLTCYFT [chain 1 A9M] | 0.996 log2 (difference from the parental peptide) |
| chain 1 EEDDYTAYYPLTCYFT [chain 1 A9Y] | -5.34 log2 (difference from the parental peptide) |
| chain 1 EEDDYTAYLPLTCYFT [chain 1 A9L] | 0.282 log2 (difference from the parental peptide) |
| chain 1 EEDDYTAYIPLTCYFT [chain 1 A9I] | 0.725 log2 (difference from the parental peptide) |
| chain 1 ELDDYTAYAPLTCYFT [chain 1 E2L] | -1.86 log2 (difference from the parental peptide) |
| chain 1 EEDDYTADAPLTCYFT [chain 1 Y8D] | 2.61 log2 (difference from the parental peptide) |
| chain 1 EEDDYTAFAPLTCYFT [chain 1 Y8F] | -1.72 log2 (difference from the parental peptide) |
| chain 1 EEDSYTAYAPLTCYFT [chain 1 D4S] | -1.33 log2 (difference from the parental peptide) |
| chain 1 EEDYYTAYAPLTCYFT [chain 1 D4Y] | -1.42 log2 (difference from the parental peptide) |
